From the MegaScale stability set (Tsuboyama et al. 2023)

B1: 1ZHC (parent)
chain: HEFRDEISVLKANNPHFDKIFEKHNQLDDDIKTAEQQNASDAEVSHMKKQKLKLKDEIHSMIIEYREK

Variants of: B1
Test: folding stability dG (cDNA display proteolysis); higher = more stable
Settings: PBS, room temperature

Folding stability dG [kcal/mol] of substitutions, site by site:
K51: C 0.855; E -0.779; A 0.915
A34: L 1.21; W 0.215; H -0.482; M 0.859; K 0.579; R 0.663; C 0.429; F 0.526; Q -0.306; Y 0.389; V -0.863; I -0.296
N38: W -0.188; H 0.624; E -0.059; T 0.312; V -0.172; G 1.55; D 0.358; Y 0.303; K 0.548; Q -0.49; A 0.467; M 0.449; I -0.331; F 0.925; L 0.276; R 0.634; P -0.007; C 0.923; S 0.358
A42: P 0.446; S 0.359; R -0.079; G 0.074; I 0.572; M 0.539; L 0.464; V 0.662; N 0.432; E 1.26; Q 0.718; C 0.68; H 0.433; T 0.44; Y 0.635; F 0.065; W 0.189; D 0.989; K 0.633
D41: S 1.03; Y 0.879; R 0.76; H 0.871; V 0.775; P 1.28; W 0.916; T 0.736; C 0.771; K 0.873; Q 0.972; M 0.722; E 1.33; L 0.874; A 1.23; I 0.951; F 0.919; N 0.532; G 0.41
Q37: D 0.411; W 0.426; N 1.38; R 1.51; C 0.94; Y 0.718; L 0.867; A 1.07; S 1; M 0.926; I 0.631; K 0.764; H 1.05; G 0.943; V 0.447; F 0.569; E 0.422; T 0.882
D30: V -0.277; T 0.396; N 0.359; R 1.07; Q 1.25; Y 0.857; S 0.524; M 1.66; W 1.09
S40: V -0.512; W -0.874; D 0.774; H 0.256; I -0.234; P 0.855; C 0.351; E 0.469; G 0.619; L 0.393; M -0.003; T -0.074; A 0.255; K 0.104; N 1.12; R 0.251; Y -0.236; F 0.13; Q 0.039
Q36: E 0.904; N 0.652; H -0.003; L 1.02; M 1.31; G 0.883; D 0.576; V 0.511; F 0.822; C 0.694; R 1.25; T 0.782; K 0.963; W 0.281; Y 0.632; A 1.01; I 0.263; S 1.17
E35: C 0.531; R 0.348; S 0.162; Y 0.895; M 1.49; V 0.864; H -0.572; G -0.433; N 0.058; I 1.68; W 0.403; L 1.67; T 0.201; Q 1.17; A 0.281; F 0.495; K 0.972
K49: C 1.11; W 0.556; M 1.19; S 0.881; R 1.03; T 0.971; V 0.867; N 0.588; F 0.439; G 0.492; Q 1.27; H 0.527; E 0.919; I 1.18; A 1.29; D 0.75; Y 1.2; L 0.949
I31: C -0.874; V -0.196; D -0.93; N -0.499; H -0.743; L -0.093
S45: N 1.05; M 1.01; W 0.834; A 1.09; R 0.873; H 0.845; K 0.976; T 1.34; Y 0.766; V 0.431; D 0.937; G 0.349; F 0.625; L 0.524; I 0.788; C 1.15; E 1.07
T33: E 0.363; I 0.854; Y 0.829; A 1.14; M 1.26; H 0.96; R 1.55; D 0.706; V 1.3; K 1.43; G -0.016; F 1; N 1.07; L 1.14; S 0.866; C 0.988; W 0.943; Q 1.02
H46: Y 1.19; V 0.657; T 0.889; K 1.46; F 1.02; A 1.5; C 1.09; I 1.23; P -0.278; M 1.1; D 0.734; L 1.36; W 1.29; S 1.28; G 0.785; Q 1.17; R 1.97; E 1.47; N 1.14
K32: T 0.187; M 0.333; L 0.566; N 0.323; W 0.34; V 0.251; Y 0.157; A 0.452; C 0.133; F 0.278; E 0.008; Q 0.87; I 0.135; R 1.18; S 0.171; H 0.348; D -0.682
M47: C -0.078; I -0.393; L 1.59; W 0.576; Y -0.412; V -0.869; A -0.981
E43: T 0.763; C 1.01; G -0.301; S 0.44; Q 0.669; V 1.22; W 1.26; M 1.12; A 0.759; H 0.621; R 1.08; K 1.24; D 1.26; L 1.14; N 0.299; Y 1.2; I 1.27; F 1.07
K48: S -0.947; M 0.757; R 0.398; E -0.818; I 0.568; W 0.118; A 0.086; T 0.032; Q 0.238; V 0.419; L 0.4; N -0.844; F 0.266; Y 0.617; C 0.421
Q50: R 0.642; G -0.255; A 0.475; K 0.22; T 0.433; I 0.757; N -0.038; Y 0.509; F 0.915; M 1; L 1.55; E 0.976; S -0.299; C 1.12; V 0.067; H 0.479; W 0.792
A39: M 0.936; C 0.897; N 0.078; K 1.1; W 1.3; L 1.36; Y 0.83; S 0.359; E 0.246; P 0.131; G 0.787; F 1.07; H 0.973; Q 0.259; I 0.873; D 0.034; T 0.09; R 1.33; V 0.986
V44: C -0.468; Y -0.518; G 0.622; S -0.907; R -0.295; K -0.664; T -0.308; M 0.497; I 1.57; L 1.37
